The values below come from US20250136713A1 (DENALI THERAPEUTICS, published 2025).

In assay [1] the target is T1, recombinant HER2 extracellular domain (ECD) (human, UniProt P04626 23-652).
T1 construct: extracellular domain; also called HER2 ECD
The assay can be described thus: SPR (Biacore 8K), antibody captured by anti-human Fab, HER2 ECD injected, 1:1 fit. In general terms: SPR reads the build-up and loss of mass on a sensor chip optically.
Method: (§1) HER2 extracellular domain (ECD) binding affinities of engineered anti-HER2 antibodies were measured by SPR using a Biacore 8K instrument. Antibodies were captured on Biacore™ Series S CM5 sensor chips immobilized with mouse anti-human Fab (human Fab capture kit from GE Healthcare) followed by injections of serial 3-fold dilutions of recombinant HER2 ECD at a flow rate of 30 μL/min. Each sample was analyzed using a 3-minute association followed by a 10-minute dissociation. After each injection, the sensor chip was regenerated using a 50 mM glycine pH2.0 regeneration buffer. A 1:1 Languir model of simultaneous fitting of kₒₙ and koff was used for kinetics analysis.

The target of assay [2] is T1, recombinant HER2 extracellular domain …. The description is as above. The source holds these as a separate data set.
Method: as §1
Assay [3] has the same target. The experiment in a line: SPR (Biacore 8K), antibody captured by anti-human Fab, HER2 ECD injected, 1:1 fit; LC SEQ ID NO: 87 paired with Anti-HER2_D2 heavy chain control (SEQ ID NO: 92).
Method: as §1
Assay [4] shares this target. The assay can be described thus: SPR (Biacore 8K), antibody captured by anti-human Fab, HER2 ECD injected, 1:1 fit. This is another data set of the same source.
Method: as §1
Assay [5] has the same target. The experiment in a line: SPR (Biacore 8K), antibody captured by anti-human Fab, HER2 ECD injected.

Changes are numbered by the printed parent chain.

B1: SEQ ID NO: 10 light chain paired with Anti-HER2_D2 heavy chain control (SEQ ID NO: 92) (antibody, human IgG1, kappa, V domains shown)
VH: EVQLVESGGGLVQPGGSLRLSCAASGFTFTDYTMDWVRQAPGKGLEWVADVNPNSGGSIYNQRFKGRFTLSVDRSKNTLYLQMNSLRAEDTAVYYCARNLGPSFYFDYWGQGTLVTVSS
VL: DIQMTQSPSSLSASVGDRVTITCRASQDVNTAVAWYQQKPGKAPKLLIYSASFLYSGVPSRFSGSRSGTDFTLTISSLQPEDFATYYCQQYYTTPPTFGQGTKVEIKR
What is called Kd is the concentration at which binding is half-saturated. On to B1, for which the Kd in assay [1] turned out to be 14 nM.

B2: Anti-HER2_D2 heavy chain comprising the VH region of SEQ ID NO: 2 paired with Anti-HER2_D4 light chain control (SEQ ID NO: 87) (antibody, V domains shown)
VH: B1 VH with S103L
VL: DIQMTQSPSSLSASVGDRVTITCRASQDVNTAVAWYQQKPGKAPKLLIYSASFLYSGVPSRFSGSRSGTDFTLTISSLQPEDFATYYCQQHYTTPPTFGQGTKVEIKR
As to B2, the dissociation constant (Kd) in assay [2] is 28 nM.

B3: SEQ ID NO: 9 light chain paired with Anti-HER2_D2 heavy chain control (SEQ ID NO: 92) (antibody, human IgG1, kappa, V domains shown)
VH: B1 VH
VL: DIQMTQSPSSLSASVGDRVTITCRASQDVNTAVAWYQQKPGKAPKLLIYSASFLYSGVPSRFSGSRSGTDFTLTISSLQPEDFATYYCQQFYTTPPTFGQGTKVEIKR
In the case of B3, the Kd in assay [1] was found to be 13 nM.

B4: Anti-HER2_D2 heavy chain comprising the VH region of SEQ ID NO: 66 paired with Anti-HER2_D4 light chain control (SEQ ID NO: 87) (antibody, V domains shown)
VH: B1 VH with Q62T
VL: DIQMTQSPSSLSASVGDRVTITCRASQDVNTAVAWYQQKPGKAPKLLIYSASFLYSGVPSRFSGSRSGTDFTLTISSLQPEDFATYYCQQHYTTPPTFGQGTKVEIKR
On to B4, for which, in assay [2], the equilibrium dissociation constant (Kd) was 32.3 nM.

B5: Anti-HER2_D2 heavy chain comprising the VH region of SEQ ID NO: 68 paired with Anti-HER2_D4 light chain control (SEQ ID NO: 87) (antibody, V domains shown)
VH: B1 VH with S103F
VL: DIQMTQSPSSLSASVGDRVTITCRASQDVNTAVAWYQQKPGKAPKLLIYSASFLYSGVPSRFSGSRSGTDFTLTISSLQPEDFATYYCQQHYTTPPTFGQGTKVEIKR
Regarding B5, in assay [2], the Kd was 9.8 nM.

B6: Anti-HER2_D2 heavy chain comprising the VH region of SEQ ID NO: 61 paired with Anti-HER2_D4 light chain control (SEQ ID NO: 87) (antibody, V domains shown)
VH: B1 VH with T28K
VL: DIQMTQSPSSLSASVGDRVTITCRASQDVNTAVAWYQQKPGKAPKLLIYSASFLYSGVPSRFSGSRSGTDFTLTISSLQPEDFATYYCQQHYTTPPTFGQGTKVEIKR
Take B6: the Kd in assay [2] was determined as 17.5 nM.

B7: Anti-HER2_D2 heavy chain comprising the VH region of SEQ ID NO: 62 paired with Anti-HER2_D4 light chain control (SEQ ID NO: 87) (antibody, V domains shown)
VH: B1 VH with T28M
VL: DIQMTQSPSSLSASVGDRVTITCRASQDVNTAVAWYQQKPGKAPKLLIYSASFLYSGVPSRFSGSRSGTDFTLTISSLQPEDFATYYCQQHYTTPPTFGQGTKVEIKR
As to B7, the dissociation constant Kd in assay [2] is 18.3 nM.

B8: Anti-HER2_D2 heavy chain comprising the VH region of SEQ ID NO: 70 paired with Anti-HER2_D4 light chain control (SEQ ID NO: 87) (antibody, V domains shown)
VH: B1 VH with S103Y
VL: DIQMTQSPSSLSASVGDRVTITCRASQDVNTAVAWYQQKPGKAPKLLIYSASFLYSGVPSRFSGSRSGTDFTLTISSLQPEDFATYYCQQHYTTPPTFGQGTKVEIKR
As for B8, the dissociation constant (Kd) in assay [2] stood at 30 nM.

B9: Anti-HER2_D4 light chain control (SEQ ID NO: 87) paired with Anti-HER2_D2 heavy chain control (SEQ ID NO: 92) (antibody, human IgG1, kappa, V domains shown)
VH: B1 VH
VL: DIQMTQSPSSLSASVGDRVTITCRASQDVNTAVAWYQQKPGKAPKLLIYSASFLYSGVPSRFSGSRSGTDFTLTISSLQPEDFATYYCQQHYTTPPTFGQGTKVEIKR
As for B9, the dissociation constant Kd in assay [3] turned out to be 41 nM; in assay [2], 42 nM.

B10: Anti-HER2_D2 heavy chain comprising the VH region of SEQ ID NO: 64 paired with Anti-HER2_D4 light chain control (SEQ ID NO: 87) (antibody, V domains shown)
VH: B1 VH with Q62R
VL: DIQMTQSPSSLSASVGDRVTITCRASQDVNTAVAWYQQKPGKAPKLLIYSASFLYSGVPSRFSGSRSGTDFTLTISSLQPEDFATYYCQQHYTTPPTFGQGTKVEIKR
For B10, the Kd in assay [2] worked out at 21 nM.

B11: Anti-HER2_D2 heavy chain comprising the VH region of SEQ ID NO: 65 paired with Anti-HER2_D4 light chain control (SEQ ID NO: 87) (antibody, V domains shown)
VH: B1 VH with Q62H
VL: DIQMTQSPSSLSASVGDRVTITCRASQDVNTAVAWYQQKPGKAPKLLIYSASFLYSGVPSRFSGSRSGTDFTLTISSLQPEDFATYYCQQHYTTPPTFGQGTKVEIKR
As for B11, the Kd in assay [2] was 35 nM.

B12: Anti-HER2_D2 heavy chain comprising the VH region of SEQ ID NO: 69 paired with Anti-HER2_D4 light chain control (SEQ ID NO: 87) (antibody, V domains shown)
VH: B1 VH with S103D
VL: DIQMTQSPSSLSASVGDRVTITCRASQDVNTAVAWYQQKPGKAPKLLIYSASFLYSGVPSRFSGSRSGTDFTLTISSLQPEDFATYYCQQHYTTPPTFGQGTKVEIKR
Regarding B12, the Kd in assay [2] was 10.2 nM.

B13: SEQ ID NO: 10 light chain paired with anti-HER2_D2 heavy chain comprising the VH region of SEQ ID NO: 2 (antibody, V domains shown)
VH: B1 VH with S103L
VL: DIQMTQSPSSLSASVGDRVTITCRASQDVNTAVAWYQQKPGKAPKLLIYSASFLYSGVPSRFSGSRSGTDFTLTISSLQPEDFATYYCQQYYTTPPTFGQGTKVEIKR
For B13, in assay [4], the Kd is 6.2 nM.

B14: SEQ ID NO: 10 light chain paired with anti-HER2_D2 heavy chain comprising the VH region of SEQ ID NO: 1 (antibody, V domains shown)
VH: B1 VH with G57Q
VL: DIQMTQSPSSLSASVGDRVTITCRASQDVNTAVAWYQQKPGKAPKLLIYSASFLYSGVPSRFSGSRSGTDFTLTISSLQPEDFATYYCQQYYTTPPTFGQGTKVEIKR
Consider B14, for which the Kd in assay [4] came out at 4.2 nM.

B15: Anti-HER2_D2 heavy chain comprising the VH region of SEQ ID NO: 67 paired with Anti-HER2_D4 light chain control (SEQ ID NO: 87) (antibody, V domains shown)
VH: B1 VH with S103W
VL: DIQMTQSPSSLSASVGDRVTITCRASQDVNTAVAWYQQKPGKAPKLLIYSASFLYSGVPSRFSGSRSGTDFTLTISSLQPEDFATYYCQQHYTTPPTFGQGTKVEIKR
With B15, the dissociation constant (Kd) in assay [2] came to 6.1 nM.

B16: Anti-HER2_D2 heavy chain comprising the VH region of SEQ ID NO: 63 paired with Anti-HER2_D4 light chain control (SEQ ID NO: 87) (antibody, V domains shown)
VH: B1 VH with T28H
VL: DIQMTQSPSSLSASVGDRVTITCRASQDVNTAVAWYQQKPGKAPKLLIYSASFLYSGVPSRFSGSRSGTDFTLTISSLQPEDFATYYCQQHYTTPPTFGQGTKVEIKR
B16: the dissociation constant Kd in assay [2] amounted to 22.1 nM.

B17: Anti-HER2_D2 heavy chain comprising the VH region of SEQ ID NO: 1 paired with Anti-HER2_D4 light chain control (SEQ ID NO: 87) (antibody, V domains shown)
VH: B1 VH with G57Q
VL: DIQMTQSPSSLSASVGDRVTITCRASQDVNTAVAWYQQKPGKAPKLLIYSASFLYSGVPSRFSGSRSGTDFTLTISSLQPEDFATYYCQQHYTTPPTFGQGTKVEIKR
As to B17, the Kd in assay [2] is 28 nM.

B18: Anti-HER2_D2 heavy chain comprising the VH region of SEQ ID NO: 60 paired with Anti-HER2_D4 light chain control (SEQ ID NO: 87) (antibody, V domains shown)
VH: B1 VH with T28N
VL: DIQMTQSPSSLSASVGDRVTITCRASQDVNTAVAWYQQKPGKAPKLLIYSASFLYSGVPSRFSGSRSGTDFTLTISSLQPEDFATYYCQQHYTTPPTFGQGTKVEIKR
Take B18: the Kd in assay [2] turned out to be 28 nM.

B19: SEQ ID NO: 10 light chain paired with anti-HER2_D2 heavy chain comprising the VH region of SEQ ID NO: 3 (antibody, V domains shown)
VH: B1 VH with G57Q, S103L
VL: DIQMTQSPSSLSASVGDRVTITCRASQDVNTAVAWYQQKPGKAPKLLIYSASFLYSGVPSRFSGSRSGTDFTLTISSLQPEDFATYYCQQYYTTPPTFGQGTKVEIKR
For B19, the dissociation constant (Kd) in assay [4] was 2.1 nM.

B20: Anti-HER2_D2 light chain control (SEQ ID NO: 94) paired with Anti-HER2_D4 heavy chain control (SEQ ID NO: 93) (antibody, human IgG1, kappa, V domains shown)
VH: not shown
VL: DIQMTQSPSSLSASVGDRVTITCKASQDVSIGVAWYQQKPGKAPKLLIYSASYRYTGVPSRFSGSGSGTDFTLTISSLQPEDFATYYCQQYYIYPYTFGQGTKVEIKR
For the molecule B20, the binding result in assay [5] was “no binding”.
